Data: US20180044434A1 (PUBLIC UNIVERSITY CORPORATION YOKOHAMA CITY UNIVERSITY, published 2018)

What was measured:
[1] = biological target: T1, full-length recombinant mouse PAD4 (mouse, UniProt Q9Z183 1-666); assay: ELISA, coated mouse PAD4; antibody 0.015625 ug/mL
T1 construct: mature; Full-length recombinant

[2] = biological target: T2, full-length recombinant human PAD4 (human, UniProt Q9UM07 1-663); assay: ELISA, coated human PAD4; antibody 0.0039063 ug/mL
T2 construct: Full-length recombinant; also called peptidylarginine deiminase 4

[3] = biological target: T1, full-length recombinant mouse PAD4; assay: ELISA, coated mouse PAD4; antibody 0.0039063 ug/mL
[4] = biological target: T3, Ala mutant having 3-amino acid substitution, SEQ ID NO: 45; assay: ELISA, coated peptide
T3 peptide: EENAAAQWMQDEMEIGY

[5] = biological target: T4, Ala mutant of TA0096, SEQ ID NO: 28; assay: ELISA, coated peptide
T4 peptide: EANMDDQWMQDEMEIGY

[6] = biological target: T5, Ala mutant of TA0096, SEQ ID NO: 42; assay: ELISA, coated peptide
T5 peptide: EENMDDQWMQDEMEIAY

[7] = biological target: T6, Ala mutant of TA0096, SEQ ID NO: 37; assay: ELISA, coated peptide
T6 peptide: EENMDDQWMQAEMEIGY

[8] = biological target: T7, Ala mutant of TA0096, SEQ ID NO: 30; assay: ELISA, coated peptide
T7 peptide: EENADDQWMQDEMEIGY

[9] = biological target: T8, Ala mutant having 3-amino acid substitution, SEQ ID NO: 49; assay: ELISA, coated peptide
T8 peptide: EENMDDQWMQDEMEIAA

[10] = biological target: T9, Ala mutant of TA0096, SEQ ID NO: 39; assay: ELISA, coated peptide
T9 peptide: EENMDDQWMQDEAEIGY

[11] = biological target: T10, Ala mutant of TA0096, SEQ ID NO: 34; assay: ELISA, coated peptide
T10 peptide: EENMDDQAMQDEMEIGY

[12] = biological target: T11, Ala mutant of TA0096, SEQ ID NO: 33; assay: ELISA, coated peptide
T11 peptide: EENMDDAWMQDEMEIGY

[13] = biological target: T12, Ala mutant of TA0096, SEQ ID NO: 40; assay: ELISA, coated peptide
T12 peptide: EENMDDQWMQDEMAIGY

[14] = biological target: T13, Ala mutant of TA0096, SEQ ID NO: 43; assay: ELISA, coated peptide
T13 peptide: EENMDDQWMQDEMEIGA

[15] = biological target: T14, Ala mutant of TA0096, SEQ ID NO: 31; assay: ELISA, coated peptide
T14 peptide: EENMADQWMQDEMEIGY

[16] = biological target: T15, TA0096 (peptide antigen corresponding to positions 340 to 356 of PAD4); assay: ELISA, coated peptide
T15 peptide: EENMDDQWMQDEMEIGY

[17] = biological target: T16, Ala mutant of TA0096, SEQ ID NO: 29; assay: ELISA, coated peptide
T16 peptide: EEAMDDQWMQDEMEIGY

[18] = biological target: T17, Ala mutant of TA0096, SEQ ID NO: 41; assay: ELISA, coated peptide
T17 peptide: EENMDDQWMQDEMEAGY

[19] = biological target: T18, Ala mutant of TA0096, SEQ ID NO: 35; assay: ELISA, coated peptide
T18 peptide: EENMDDQWAQDEMEIGY

[20] = biological target: T19, Ala mutant having 3-amino acid substitution, SEQ ID NO: 47; assay: ELISA, coated peptide
T19 peptide: EENMDDQWMAAAMEIGY

[21] = biological target: T20, Ala mutant of TA0096, SEQ ID NO: 36; assay: ELISA, coated peptide
T20 peptide: EENMDDQWMADEMEIGY

[22] = biological target: T21, Ala mutant of TA0096, SEQ ID NO: 38; assay: ELISA, coated peptide
T21 peptide: EENMDDQWMQDAMEIGY

[23] = biological target: T22, Ala mutant having 3-amino acid substitution, SEQ ID NO: 44; assay: ELISA, coated peptide
T22 peptide: AAAMDDQWMQDEMEIGY

[24] = biological target: T23, Ala mutant of TA0096, SEQ ID NO: 27; assay: ELISA, coated peptide
T23 peptide: AENMDDQWMQDEMEIGY

[25] = biological target: T24, Ala mutant having 3-amino acid substitution, SEQ ID NO: 48; assay: ELISA, coated peptide
T24 peptide: EENMDDQWMQDEAAAGY

[26] = biological target: T2, full-length recombinant human PAD4; assay: ELISA, coated human PAD4; antibody 0.0009766 ug/mL
[27] = biological target: T2, full-length recombinant human PAD4; assay: SPR (Biacore T200), antibody captured, human PAD4 analyte
Protocol: Biacore (GE Healthcare, Biacore T200) was carried out to evaluate the affinity of A11 etc., toward human PAD4. A Mouse Antibody Capture kit (GE Healthcare, BR-1008-38) was used for the affinity assay. Specifically, in accordance with the standard protocol provided by the manufacture, NHS/EDC was used and an amine coupling method, in which a free carboxyl group is fixed on a surface of a CM5 chip, was used to immobilize a rabbit anti-mouse polyclonal antibody on the surface of a CM5 chip. Next, A11 etc., were each captured by the rabbit anti-mouse polyclonal antibody. L207 was likewise captured. Then, human PAD4 at each concentration was subjected to Biacore T200 measurement to create a kinetic sensorgram.

[28] = biological target: T1, full-length recombinant mouse PAD4; assay: ELISA, coated mouse PAD4; antibody 0.0625 ug/mL
[29] = biological target: T1, full-length recombinant mouse PAD4; assay: ELISA, coated mouse PAD4; antibody 0.25 ug/mL
[30] = biological target: T1, full-length recombinant mouse PAD4; assay: ELISA, coated mouse PAD4; antibody 1 ug/mL

T2 sequence (Q9UM07 whole entry): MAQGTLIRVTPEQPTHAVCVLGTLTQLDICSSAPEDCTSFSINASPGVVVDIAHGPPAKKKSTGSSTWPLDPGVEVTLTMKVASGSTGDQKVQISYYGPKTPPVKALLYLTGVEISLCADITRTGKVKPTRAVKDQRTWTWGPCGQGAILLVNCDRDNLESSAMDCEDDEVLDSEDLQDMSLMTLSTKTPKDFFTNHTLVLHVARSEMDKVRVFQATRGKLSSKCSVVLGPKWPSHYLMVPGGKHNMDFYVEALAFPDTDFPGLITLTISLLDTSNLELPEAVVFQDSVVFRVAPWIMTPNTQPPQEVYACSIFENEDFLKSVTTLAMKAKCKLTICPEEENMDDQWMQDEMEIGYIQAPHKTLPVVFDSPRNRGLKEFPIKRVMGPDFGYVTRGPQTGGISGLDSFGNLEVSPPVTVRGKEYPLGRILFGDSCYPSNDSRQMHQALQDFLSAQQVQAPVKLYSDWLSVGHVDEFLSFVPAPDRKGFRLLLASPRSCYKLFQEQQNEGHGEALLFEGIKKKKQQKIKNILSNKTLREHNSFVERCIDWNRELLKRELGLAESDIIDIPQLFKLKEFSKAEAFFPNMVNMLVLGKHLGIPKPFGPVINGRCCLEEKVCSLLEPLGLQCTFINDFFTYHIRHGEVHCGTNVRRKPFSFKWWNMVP
T1 sequence (Q9Z183 whole entry): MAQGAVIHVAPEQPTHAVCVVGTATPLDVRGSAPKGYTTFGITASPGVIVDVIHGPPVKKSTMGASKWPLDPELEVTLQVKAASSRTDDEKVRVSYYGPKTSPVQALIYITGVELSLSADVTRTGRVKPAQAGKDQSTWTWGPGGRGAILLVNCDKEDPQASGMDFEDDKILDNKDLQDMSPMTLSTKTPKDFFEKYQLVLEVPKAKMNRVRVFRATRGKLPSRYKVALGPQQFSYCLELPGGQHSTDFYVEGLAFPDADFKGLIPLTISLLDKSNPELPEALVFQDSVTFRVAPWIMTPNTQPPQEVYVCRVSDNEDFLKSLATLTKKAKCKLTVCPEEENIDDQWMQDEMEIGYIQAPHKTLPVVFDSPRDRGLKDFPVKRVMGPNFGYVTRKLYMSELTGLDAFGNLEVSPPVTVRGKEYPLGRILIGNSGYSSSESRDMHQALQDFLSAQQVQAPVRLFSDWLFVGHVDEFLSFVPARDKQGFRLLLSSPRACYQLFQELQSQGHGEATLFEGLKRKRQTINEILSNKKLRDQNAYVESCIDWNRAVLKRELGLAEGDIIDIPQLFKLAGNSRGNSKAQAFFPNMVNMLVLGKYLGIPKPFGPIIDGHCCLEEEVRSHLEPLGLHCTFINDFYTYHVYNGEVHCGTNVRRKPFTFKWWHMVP

B1: H7 (antibody, V domains shown)
VH: AVTLDESGGGLQTPGGALSLVCKASGFTFSTYAMGWMRQAPGKGLEYVAAIRNDGSWTGYGAAVKGRATILRDNGQSTVRLQLSNLRAEDTGTYYCAKYTGSSGGSIGAWGHGTEVIVS
VL: ASTQPSSVSANPGGTVEITCSGGSGRYYYGWYQQKSPGSAPVTVIYSSTHRPSNIPSRFSGSKSGSTATLTITGVQAEDEAVYFCGTADSSSYVFGAGTTLTVL
notes: Chicken variable regions in a mouse chimeric antibody (IgG1); also called anti-PAD4 antibody H7
- OD 490/630 nm [1]: 2.26
- OD 490/630 nm [2]: 1.35
- OD 490/630 nm [3]: 1.41
- OD 490/630 nm [4]: 0.016
- OD 490/630 nm [5]: 1.95
- OD 490/630 nm [6]: 1.85
- OD 490/630 nm [7]: 1.86
- OD 490/630 nm [8]: 1.95
- OD 490/630 nm [9]: 1.86
- OD 490/630 nm [10]: 1.81
- OD 490/630 nm [11]: 0.066
- OD 490/630 nm [12]: 1.87
- OD 490/630 nm [13]: 1.86
- OD 490/630 nm [14]: 1.87
- OD 490/630 nm [15]: 0.462
- OD 490/630 nm [16]: 1.82
- OD 490/630 nm [17]: 1.9
- OD 490/630 nm [18]: 1.83
- OD 490/630 nm [19]: 0.065
- OD 490/630 nm [20]: 1.67
- OD 490/630 nm [21]: 1.87
- OD 490/630 nm [22]: 1.99
- OD 490/630 nm [23]: 1.9
- OD 490/630 nm [24]: 1.9
- OD 490/630 nm [25]: 1.87
- OD 490/630 nm [26]: 0.537
- Kd [27]: 7.56 nM
- koff [27]: 0.000791 s⁻¹
- kon [27]: 105000 M⁻¹ s⁻¹
- OD 490/630 nm [28]: 2.29
- OD 490/630 nm [29]: 2.31
- OD 490/630 nm [30]: 2.3
